B1: Dynamin-2 (Rattus norvegicus (Rat)), P39052 (parent)
chain: MGNRGMEELIPLVNKLQDAFSSIGQSCHLDLPQIAVVGGQSAGKSSVLENFVGRDFLPRGSGIVTRRPLILQLIFSKTEYAEFLHCKSKKFTDFDEVRQEIEAETDRVTGTNKGISPVPINLRVYSPHVLNLTLIDLPGITKVPVGDQPPDIEYQIKDMILQFISRESSLILAVTPANMDLANSDALKLAKEVDPQGLRTIGVITKLDLMDEGTDARDVLENKLLPLRRGYIGVVNRSQKDIEGRKDIRAALAAERKFFLSHPAYRHMADRMGTPHLQKTLNQQLTNHIRESLPTLRSKLQSQLLSLEKEVEEYKNFRPDDPTRKTKALLQMVQQFGVDFEKRIEGSGDQVDTLELSGGARINRIFHERFPFELVKMEFDEKDLRREISYAIKNIHGVRTGLFTPDLAFEAIVKKQVVKLKEPCLKCVDLVIQELISTVRQCTSKLSSYPRLREETERIVTTYIREREGRTKDQILLLIDIEQSYINTNHEDFIGFANAQQRSTQLNKKRAIPNQGEILVIRRGWLTINNISLMKGGSKEYWFVLTAESLSWYKDEEEKEKKYMLPLDNLKIRDVEKGFMSNKHVFAIFNTEQRNVYKDLRQIELACDSQEDVDSWKASFLRAGVYPEKDQAENEDGAQENTFSMDPQLERQVETIRNLVDSYVAIINKSIRDLMPKTIMHLMINNTKAFIHHELLAYLYSSADQSSLMEESAEQAQRRDDMLRMYHALKEALNIIGDISTSTVSTPVPPPVDDTWLQNTSSHSPTPQRRPVSSVHPPGRPPAVRGPTPGPPLIPMPVGATSSFSAPPIPSRPGPQNVFANNDPFSAPPQIPSRPARIPPGIPPGVPSRRAPAAPSRPTIIRPAEPSLLD
B2: Focal adhesion kinase 1 (Homo sapiens), Q05397 (parent)
chain: MAAAYLDPNLNHTPNSSTKTHLGTGMERSPGAMERVLKVFHYFESNSEPTTWASIIRHGDATDVRGIIQKIVDSHKVKHVACYGFRLSHLRSEEVHWLHVDMGVSSVREKYELAHPPEEWKYELRIRYLPKGFLNQFTEDKPTLNFFYQQVKSDYMLEIADQVDQEIALKLGCLEIRRSYWEMRGNALEKKSNYEVLEKDVGLKRFFPKSLLDSVKAKTLRKLIQQTFRQFANLNREESILKFFEILSPVYRFDKECFKCALGSSWIISVELAIGPEEGISYLTDKGCNPTHLADFTQVQTIQYSNSEDKDRKGMLQLKIAGAPEPLTVTAPSLTIAENMADLIDGYCRLVNGTSQSFIIRPQKEGERALPSIPKLANSEKQGMRTHAVSVSETDDYAEIIDEEDTYTMPSTRDYEIQRERIELGRCIGEGQFGDVHQGIYMSPENPALAVAIKTCKNCTSDSVREKFLQEALTMRQFDHPHIVKLIGVITENPVWIIMELCTLGELRSFLQVRKYSLDLASLILYAYQLSTALAYLESKRFVHRDIAARNVLVSSNDCVKLGDFGLSRYMEDSTYYKASKGKLPIKWMAPESINFRRFTSASDVWMFGVCMWEILMHGVKPFQGVKNNDVIGRIENGERLPMPPNCPPTLYSLMTKCWAYDPSRRPRFTELKAQLSTILEEEKAQQEERMRMESRRQATVSWDSGGSDEAPPKPSRPGYPSPRSSEGFYPSPQHMVQTNHYQVSGYPGSHGITAMAGSIYPGQASLLDQTDSWNHRPQEIAMWQPNVEDSTVLDLRGIGQVLPTHLMEERLIRQQQEMEEDQRWLEKEERFLKPDVRLSRGSIDREDGSLQGPIGNQHIYQPVGKPDPAAPPKKPPRPGAPGHLGSLASLSSPADSYNEGVKLQPQEISPPPTANLDRSNDKVYENVTGLVKAVIEMSSKIQPAPPEEYVPMVKEVGLALRTLLATVDETIPLLPASTHREIEMAQKLLNSDLGELINKMKLAQQYVMTSLQQEYKKQMLTAAHALAVDAKNLLDVIDQARLKMLGQTRPH
partner: B1 chain

Variants of: B1
Conditions: with fak1_mouse Ptk2, P34152

| Variant | effect of a mutation on the interaction |
| --- | --- |
| K44E | increasing interaction |

Variants of: B2
Conditions: with dyn2_rat Dnm2, P39052

| Variant | effect of a mutation on the interaction |
| --- | --- |
| Y925F | disrupting interaction |

— IntAct's records for PubMed 15895076
